Measured values: publication PMC11408864

Tests used:
[1] = biological target: TDP43 low complexity domain (TDP43-LCD) condensates (UniProt Q13148)
[2] = biological target: TDP43-LCD condensates, 2% Alexa Fluor 488 labeled (UniProt Q13148)
[3] = biological target: TDP43 low complexity domain (TDP43-LCD) condensates (UniProt Q13148); test: co-sedimentation; TDP43-LCD condensates (50 μM) mixed with spin-labeled Httex1(Q46)-35R1 monomers (pre-filtered, 100 kD) or fibrils (sonicated, unbundled), 20 μM starting concentration; 123,000g at 4 °C; Httex1 in pellet and supernatant quantified by EPR

| Substance | t1/2 of ThT fluorescence of 50 μM TDP43-LCD with 5 μM and 20 μM Httex1(Q46) fibrils (∼4 h and ∼1.5 h; ∼7 h without fibrils) [1] | percent of TDP43-LCD condensates irregularly shaped after 4 h of co-incubation with Httex1(Q46) fibrils (∼10% without fibrils), fluorescence microscopy [2] | concentration of Httex1(Q46) in the pellet [3] |
| --- | --- | --- | --- |
| Httex1(Q46) fibrils, Alexa Fluor 594 labeled (domain or fragment) | 4 h | 60% | – |
| Httex1(Q46)-35R1 monomer (domain or fragment) | – | – | < 0.3 µM |
